Measurements as given in PMC12341890, “Insights into plastocyanin–cytochrome b6f complex formation: The role of plastocyanin phosphorylation” (Plant Physiology, 2025).

Tests used:
[1] = target: cytochrome f (Cytf, PetA), His-tagged, in the isolated cytochrome b6f complex (C. reinhardtii) (UniProt P23577)
[2] = target: T1, cytochrome f (Cytf, PetA), His-tagged, in the isolated cytochrome b6f complex (C. reinhardtii, UniProt P23577 32-317); assay: cross-linking; PC (100 µM) preactivated with 5 mM EDC and 10 mM NHS, pH 6.5 (MOPS), 20 min at room temperature; 5 mM ferricyanide added and cross-linker removed; added to isolated Cytb6f (2.7 µM) pre-reduced with 5 mM ascorbate; HEPES 30 mM pH 7.5, MgCl2, tPCCαM; 45 min at room temperature; read by SDS-PAGE (Coomassie, anti-Cytf blot) and by trypsin digestion with LC-MS/MS (MaxQuant and xiSEARCH); conditions: both partners purified
T1 construct: cytochrome f (PetA) of C. reinhardtii, UniProt P23577; numbers count on: the mature protein (Y32 of P23577 = Y1); Stood in every assay as a subunit of the whole isolated Cytb6f complex, not as an isolated protein; Carries heme f; also called Cytb6f (as the subunit cross-linked); source: C. reinhardtii strain expressing His-tagged PetA; Cytb6f complex purified (tPCCαM solubilisation, NiNTA, …)
T1 sequence (P23577 32-317, one chain of several): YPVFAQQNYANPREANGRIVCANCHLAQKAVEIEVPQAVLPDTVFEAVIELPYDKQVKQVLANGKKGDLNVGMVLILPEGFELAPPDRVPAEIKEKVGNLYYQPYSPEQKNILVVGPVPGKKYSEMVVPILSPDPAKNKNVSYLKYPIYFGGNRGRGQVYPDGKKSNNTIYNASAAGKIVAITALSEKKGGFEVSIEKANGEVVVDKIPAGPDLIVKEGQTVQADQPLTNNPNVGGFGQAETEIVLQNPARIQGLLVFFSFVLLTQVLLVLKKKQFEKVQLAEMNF

Sequence of cytochrome f (Cytf, PetA), His-tagged, in the isolated cytochrome b6f complex (C. reinhardtii) (P23577 32-317, one chain of several): as above

Row | Binder | half-time of Cytf oxidation in the light (absorbance at 554 nm), isolated Cytb6f and PSI, 1 to 3 µM PC, 5 µM FDX [1] | binding result [2]
1 | plastocyanin (PC) S49D, recombinant phosphomimetic variant (natural protein) DATVKLGADSGALEFVPKTLTIKSGETVNFVNNAGFPHNIVFDEDAIPDGVNADAISRDDYLNAPGETYSVKLTAAGEYGYYCEPHQGAGMVGKIIVQ | 120 ms | 
2 | plastocyanin (PC) S49K, recombinant (natural protein, C. reinhardtii, plastocyanin of C. reinhardtii, UniProt P18068, with a point mutation S49K that adds a trypsin site; numbers count on: the mature protein (D48 of P18068 = D1); S49 is S96 in P18068 by the printed offset; Made from the WT Pet17b-PETE plasmid; the methods list codons only for S-to-A, S-to-E and S-to-D; also called mutated S49K PC; source: E. coli, recombinant (as the wild type PC)) DATVKLGADSGALEFVPKTLTIKSGETVNFVNNAGFPHNIVFDEDAIPKGVNADAISRDDYLNAPGETYSVKLTAAGEYGYYCEPHQGAGMVGKIIVQ |  | binds
